Drawing on patent publication US20200157190A1, this text covers ELISA plate reading for one molecule.

The target in assay [1] is Antigen 1. Kind of assay: ELISA, supernatant 1 TO 4096, Plate 1 (Antigen 1), column 3, BLANK 0.07. For orientation: In an ELISA, binding on a coated surface is turned into a signal by an enzyme label.
Assay [2] has as its target Antigen 2. Kind of assay: ELISA, supernatant 1 TO 4, Plate 2 (Antigen 2), column 3, BLANK 0.06.
In assay [3] the target is Antigen 2. The assay can be described thus: ELISA, supernatant 1 TO 4096, Plate 2 (Antigen 2), column 3, BLANK 0.06.
The target in assay [4] is Antigen 2. The assay can be described thus: ELISA, supernatant 1 TO 1024, Plate 2 (Antigen 2), column 3, BLANK 0.06.
Assay [5] has as its target Antigen 1. Kind of assay: ELISA, supernatant 1 TO 256, Plate 1 (Antigen 1), column 3, BLANK 0.07.
In assay [6] the target is Antigen 1. Kind of assay: ELISA, supernatant 1 TO 4, Plate 1 (Antigen 1), column 3, BLANK 0.07.
Assay [7] has as its target Antigen 1. Kind of assay: ELISA, supernatant 1 TO 16, Plate 1 (Antigen 1), column 3, BLANK 0.07.
Assay [8] addresses Antigen 2. The assay can be described thus: ELISA, supernatant 1 TO 256, Plate 2 (Antigen 2), column 3, BLANK 0.06.
For assay [9], the target named is Antigen 2. The assay can be described thus: ELISA, supernatant 1 TO 16, Plate 2 (Antigen 2), column 3, BLANK 0.06.
The target in assay [10] is Antigen 1. The assay can be described thus: ELISA, supernatant 1 TO 64, Plate 1 (Antigen 1), column 3, BLANK 0.07.
The target of assay [11] is Antigen 2. Kind of assay: ELISA, supernatant UNDILUTED, Plate 2 (Antigen 2), column 3, BLANK 0.06.
In assay [12] the target is Antigen 2. The assay can be described thus: ELISA, supernatant 1 TO 64, Plate 2 (Antigen 2), column 3, BLANK 0.06.
Assay [13] addresses Antigen 1. The assay can be described thus: ELISA, supernatant UNDILUTED, Plate 1 (Antigen 1), column 3, BLANK 0.07.
Assay [14] addresses Antigen 1. The assay can be described thus: ELISA, supernatant 1 TO 1024, Plate 1 (Antigen 1), column 3, BLANK 0.07.

B1: Heavy Chain Construct 4 with Light Chain Construct 2 (VH2-VH1/VL2) (antibody)
heavy: QSLEESGGRLVSPGTPLTLTCTASGFSLSSNAMGWVRQAPGEGLEYIGIIRPGGSTYYASWAKGRFTISKTSSTTVDLKMTSLTTEDTATYFCARAWDIWGPGTLVTVSLGQPKAPSVFPLAPCCGDTPSSTVTLGCLVKGYLPEPVTVTWNSGTLTNGVRTFPSVRQSSGLYSLSSVVSVTSSSQPVTCNVAHPATNTKVDKTVAPSTCSKPTCPPPELLGGRPQPQPQPQPQPQPQPQPQPQPQPQPQPQPQPQSRQSVEESGGRLVTPGTPLTLTCTVSGFSLNTNAIRWVRQAPGKGLEWIGAIDASGNTYYASWAKGRFTISKTSTTVDLKITSPTTEDTATYFCNRFNTANIWGPGTLVTVSSGQPKAPSVFPLAPCCGDTPSSTVTLGCLVKGYLPEPVTVTWNSGTLTNGVRTFPSVRQSSGLYSLSSVVSVTSSSQPVTCNVAHPATNTKVDKTVAPSTCSKPTCPPPELLGGPSVFIFPPKPKDTLMISRTPEVTCVVVDVSQDDPEVQFTWYINNEQVRTARPPLREQQFNSTIRVVSTLPIAHQDWLRGKEFKCKVHNKALPAPIEKTISKARGQPLEPKVYTMGPPREELSSRSVSLACMINGFYPSDISVEWEKNGKAEDNYKTTPAVLDSDGSYFLYSKLSVPTSEWQRGDVFTCSVMHEALHNHYTQKSISRSPGK
light: AFELTQTPSSVEAAVGGTVTIRCQASQSISNQLSWYQQKPGQPPKRLIYRASTLASGVPARFKGSGSGTAFTLTISDLECADGATYYCQSFYYTDVIDYNAFGGGTEVVVTGDPVAPTVLIFPPAADQVATGTVTIVCVANKYFPDVTVTWEVDGTTQTTGIENSKTPQNSADCTYNLSSTLTLTSTQYNSHKEYTCKVTQGTTSVVQSFNRGDC
Turning to B1, the ELISA plate reading was 0.08 in the assay with Antigen 1 [1]; 1.81 in the assay with Antigen 2 [2]; 0.14 in the assay with Antigen 2 [3]; 0.21 with Antigen 2 [4]; 0.07 in the assay with Antigen 1 [5]; 0.45 with Antigen 1 [6]. The ELISA plate reading with Antigen 1 [7] turned out to be 0.16; with Antigen 2 [8], 0.52; with Antigen 2 [9], 1.61; in the assay with Antigen 1 [10] it was 0.1; in the assay with Antigen 2 [11], 2.49; with Antigen 2 [12], 1.24. Moreover, the ELISA plate reading was found to be 0.66 in the assay with Antigen 1 [13] and 0.06 in the assay with Antigen 1 [14].
